# Values of other authors in article PMC4303689.
# Target: His50 (UniProt position 50, KEGVVHGVATV)
# Experiment: NMR
# Settings: not stated (the range of values reflects different ionic strengths); free monomeric alpha-synuclein (inferred from context)
substance,measurement,value
alpha-synuclein (Homo sapiens),pKa,6.5–6.8
